Laboratory results reported in the supplement of paper PMC10567573.

B1: LOXL2 (parent)
chain: FSPDGPSRFRKAYKPEQPLVRLRG

Variants of: B1
Assay: protein stability index of a GFP-peptide fusion (GPS, HEK-293T) (PSI 1-6); higher = more stable
Conditions: c terminus: a fixed tail appended
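Note: lentivirally expressed fusions sorted by FACS into six bins by GFP to DsRed ratio, PSI derived from sequencing read proportions per bin multiplied by bin number.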

Protein stability index of substitutions, site by site:
E16: A 1.96, K 2.67, D 2.65, P 1.72, S 2.72, Y 2.75, F 1.39, V 1.85, Q 2.92, H 1.63, I 3.39, L 2.74, G 1.54, N 1.64, C 2.49, T 2.09
V20: N 2.42, S 1.34, D 2.34, W 3.13, F 2.99, R 2.51, E 1.74, K 1.37, G 1.41, A 2.26, Q 1.4, M 2.05, P 1.92, C 1.85, Y 2.17, T 1.92, H 1.63, I 2.62, L 2
K11: Y 2.6, V 2.66, T 3.77
R21: G 1.67, D 2, T 1.53, Y 1.86, H 2.25, P 1.77, M 1.59, S 1.73, E 1.99, Q 1.8, F 2.12, K 1.25, C 2.37, W 1.92, L 1.26, V 1.65, I 2.57, A 1.65, N 1.61
K14: C 3.06, W 1.99, V 2.71, S 1.48, R 1.54, L 2.46, E 1.83, D 1.86, N 2.35, F 1.72, I 2.86, A 2.1, P 1.95, H 2.06, G 2.32, Y 2.61, Q 1.76, T 3.59, M 2.19
A12: I 3.12, Q 1.96, S 1.9, Y 1.91, G 2.44, E 2.15, H 1.8, T 2.59, R 1.42, C 1.88, W 4.25, F 1.57, P 2.13, N 2.11, K 2, V 2.3, L 2.35, D 2.03
L22: M 2.04, Q 1.99, H 1.52, S 1.74, W 1.47, D 1.93, K 1.58, A 2.32, P 2.05, G 1.9, R 2.35, T 2.26, N 2.36, I 2.42, C 1.95, Y 1.75, F 1.21, V 1.54, E 1.68
L19: E 2.34, D 2.46, K 1.65, G 2.08, M 1.82, Q 2.56, H 1.45, S 2.29, I 2.36, W 2.04, A 2.01, Y 2.69, V 1.41, T 1.89, P 1.23, N 1.22
Q17: M 2.48, E 4.03, V 2.21, W 1.28, N 1.4, T 1.5, K 1.54, S 2.25, I 2.18, A 2.07, P 2.81, C 2.65, F 2.74, D 2.08, L 2.03, R 1.57, G 2.53, H 1.46
Y13: I 1.54, K 2.77, M 1.54, R 2.27, V 3.86, G 2.06, C 3.06, L 1.97, A 2.05, Q 2.38, P 2.55, H 1.81, F 1.91, W 3.28, S 2.44, N 2.15, D 3.33, T 1.69, E 2.15
G24: A 2.71, I 1.44, H 1.52, W 2.07, P 1.82, M 2.72, Y 1.85, Q 2.72, C 2.27, E 1.91, T 1.38, V 2.73, L 3.27, K 1.69, N 1.91, F 1.73, R 2.79, S 1.41, D 1.8
P18: T 1.42, N 2.75, V 2.06, D 2.04, Q 2.17, K 2.38, A 2.07, I 1.95, M 2, F 1.11, R 1.86, L 1.89, E 1.82, S 1.8, H 2.03, G 1.66, W 2.44, C 1.52, Y 1.65
P15: L 3.53, M 2.79, A 1.85, Q 1.7, K 1.66, T 1.41, E 1.43, W 1.5, H 1.7, S 3.74, D 1.68, N 2.52, G 2.48, R 2.88, V 2.28, C 3.13, Y 1.6, I 2.07, F 1.83
R23: M 2.33, V 1.98, F 1.97, G 1.96, N 1.29, H 1.85, Q 2.13, W 2.25, L 1.37, P 1.85, Y 1.2, A 1.89, T 1.33, I 2.31, D 2.78, C 2.39, S 1.82, E 2.46, K 1.53
